For the test, the target named is SARS-CoV-2 spike protein receptor binding domain (SARS-CoV-2, UniProt P0DTC2). Put plainly: cryo-EM structure.

B1: REGN10989 Fab (Fab, V domains shown)
VH: QVQLVQSGAEVKKPGASVKVSCKASGYIFTGYYMHWVRQAPGQGLEWMGWINPNSGGANYAQKFQGRVTLTRDTSITTVYMELSRLRFDDTAVYYCARGSRYDWNQNNWFDPWGQGTLVTVSS
VL: QSALTQPASVSGSPGQSITISCTGTSSDVGTYNYVSWYQQHPGKAPKLMIFDVSNRPSGVSDRFSGSKSGNTASLTISGLQAEDEADYYCSSFTTSSTVVFGGGTKLTVL
For B1, the binding result is “binds”.

B2: REGN10985 Fab (Fab, V domains shown)
VH: EVQLVESGGGLVQPGRSLRLSCAASGFTFDDYAMHWVRQAPGKGLEWVSGISWNRGSIGYADSVKGRFTISRDNAKNSLYLQMSSLRAEDTALYYCAKDGERWDSVVVPSARNGMDVWGQGTTVTVSS
VL: QSVLTQPPSVSGAPGQRVTISCTGSSSNIGAGYDVHWYQQLPGTAPKLLIYGNSNRPSGVPDRFSGSKSGTSASLAITGLQAEDEADYYCQSYDSSLSGSYVFGTGTKVTVL
For the molecule B2, the binding result is on record as “binds”.
